The test addresses T1, recombinant human Periostin (human, UniProt Q15063 22-836).
T1 construct: Periostin, human, recombinant; source: bought: Sino Biological
T1 sequence (looked up): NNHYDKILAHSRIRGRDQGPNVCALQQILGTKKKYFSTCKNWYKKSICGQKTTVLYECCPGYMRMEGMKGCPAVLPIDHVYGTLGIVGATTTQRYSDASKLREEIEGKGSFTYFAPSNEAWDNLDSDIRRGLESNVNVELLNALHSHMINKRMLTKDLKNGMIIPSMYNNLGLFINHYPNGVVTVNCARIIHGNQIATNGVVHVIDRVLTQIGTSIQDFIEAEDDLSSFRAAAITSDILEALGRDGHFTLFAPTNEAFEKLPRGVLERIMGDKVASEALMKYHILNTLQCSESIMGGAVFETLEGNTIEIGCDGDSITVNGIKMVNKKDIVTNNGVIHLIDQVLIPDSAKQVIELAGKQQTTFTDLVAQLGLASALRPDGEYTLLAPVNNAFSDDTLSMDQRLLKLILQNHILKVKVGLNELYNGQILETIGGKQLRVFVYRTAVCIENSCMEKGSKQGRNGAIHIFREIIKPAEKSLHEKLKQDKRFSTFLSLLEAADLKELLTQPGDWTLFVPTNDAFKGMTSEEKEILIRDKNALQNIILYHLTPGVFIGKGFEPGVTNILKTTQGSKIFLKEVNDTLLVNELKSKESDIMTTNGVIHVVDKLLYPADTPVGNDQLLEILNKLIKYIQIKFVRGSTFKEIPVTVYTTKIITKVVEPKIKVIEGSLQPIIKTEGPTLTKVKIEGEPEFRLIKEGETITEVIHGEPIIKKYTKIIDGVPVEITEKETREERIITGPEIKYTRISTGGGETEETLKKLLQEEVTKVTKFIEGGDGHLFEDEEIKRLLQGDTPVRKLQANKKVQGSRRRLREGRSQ
As to the kind of experiment: SPR; Biacore 3000; NINJ2 extracellular domain immobilised by amine coupling on a carboxymethyldextran chip (CMD200M); periostin injected at 231, 116, 58, 29 and 14 nM, 30 µL/min, 2 min association, 5 min dissociation; HBS-T (10 mM HEPES, 150 mM NaCl, 0.005% Tween20) pH 7.4. To be noted: both partners purified.

B1: extracellular domain (Met1-Thr65) of recombinant human NINJ2 (domain or fragment, UniProt Q9NZG7 1-65, looked up)
chain: MESARENIDLQPGSSDPRSQPINLNHYATKKSVAESMLDVALFMSNAMRLKAVLEQGPSSHYYTT
notes: Ninjurin-2 (NINJ2), human, extracellular domain, residues Met1-Thr65; also called NINJ2 extracellular domain; source: bought: R&D Systems
In the case of B1, the equilibrium dissociation constant (Kd) (in general, the constant that tells how readily two partners part at equilibrium) came to 16.9 nM.
